Laboratory results reported in the DeepSol protein solubility set.

Experiment: soluble on expression in E. coli; label from the status in PepcDB or PDB records

| Sequence | soluble on expression in E. coli |
| --- | --- |
| GMEKRLDYITDLMALGPTANARTIQRRQTAHRLAIAEAWQVKPGEKILEIGCGQGDLSAVLADQVGSSGHVTGIDIASPDYGAPLTLGQAWNHLLAGPLGDRLTVHFNTNLSDDLGPIADQHFDRVVLAHSLWYFASANALALLFKNMAAVCDHVDVAEWSMQPTALDQIGHLQAAMIQGLLYAIAPSDVANIRTLITPDTLAQIAHDNTWTYTAGTIVEDPTLDDAHWEIATTNALLTELKLSTDLRDRVKPLLEAMSHNGTASLATFTGRITF | soluble |
| AIAVFWGKPLASPRESPRAPGENGKRALHFCAVDEDFVRLFYSFFKSLVGKDVVVELKNDLSICGTLHSVDQYLNIKLTDISVTDPEKYPHMLSVKNCFIRGSVVRYVQLPADEVDTQLLQDAARKEALQQKQ | soluble |
| MGSDKIHHHHHHMILDERVNSNFDQLNDNDIQIAHYVNTHIDVCKNMKIQDLASQTHASNATIHRFTRKLGFDGYSDFKSFLKFEDSKNHQLPSDSMEQFKQEIENTFNYLERIDYRLLTHKMHHATTIYLYGTGRAQMNVAEEAQRILLTMHKNIILLHDVHELKMVLNKTIPEDLFFIISLSGETHQLKEVTQLLQLRQKYFISVTTMKDNTLAQQADYNVYVSSNTFYLNDGTDYSSFISYHIFFETLLRKYNEYKENHELT | not soluble |
| MTEIRVHQGDLPNLDNYRIDAVAVDTETLGLQPHRDRLCVVQLSSGDGTADVIQIAKGQKSAPNLVRLLSDRDITKIFHFGRFDLAILAHTFGVMPDVVFCTKIASKLTRTYTDRHGLKEICGELLNVNISKQQQSSDWAAETLSRAQIEYAASDVLYLHRLKDIFEERLKREERESVAKACFQFLPMRANLDLLGWSEIDIFAHS | not soluble |
| ATMPLSPLLTAVIETTLNTLINDDPALGRKLLRLKGKVISLHLRELNQSLTFVFSQRIDVMTGFEGQPDCYLALNLSILPQLREQANITQLIKQDKLELEGDIQLAQKFSELMTDCKPDVEEWLSRITGDVVAHSVVHGVKSIVGALKQQAHKHQNHLAQVLTEEWRIAPPPLEIAYFCDQVDDVKSHAARLEARLNQLLEKA | not soluble |
| MAVHTDPFKKYLYKIGNRTSGSDKHIRKFKTFLTISAYSNILVISMIIDQLRIQKNIPDEEFDAIYPFEIRELSERHWTSVFVAKTAADFLCNQRPVKVLDIGSGAGKFCFVGAALHPSSQFHGIDIRENFIQLSNNLKEQYAVANVSFFQQDALEMDLTGYGGIYFFNSFQEKIDPTSVIDHNSKVSVEQYIQYTNHIFNELNKVPAGTKLVTYYSEDFCVPGSFRLLATHFNGELKFYLKEMEPDESDEQLNQQDISEHIDRHTFLSE | not soluble |
| MERQVFIRLRHRLEADPDELILLGHIAQVAGDRGYKEKLERLPIYQVSKADQSMVVLDVMKVIEAVHKSFPDLDVQTVGGSETIVEIQYPKRDLSP | soluble |
| MEICADELKKVLNTVVNKHKDLKTHGFTLESCRSMIALMDTDGSGKLNLQEFHHLWNKIKAWQKIFKHYDTDQSGTINSYEMRNAVNDAGFHLNNQLYDIITMRYADKHMNIDFDSFICCFVRLEGMFRAFHAFDKDGDGIIKLNVLEWLQLTMYA | soluble |
| MDTIININNNNQKYPQSAEEYHKVLCNYFITLQSAMQSTSRPSSSSPPSLPAVSSELLSSSFPTNAPESSSRDLAPKQNQFTINVVLFDEKKKKNPEENLPANGDQLATLRSLMMQINPSSPPSIPATSPQLPLAESENVPESSSTLKDHKFSLNTMLFNVKKNDAVKISLANQEQWAKFHEIGTEMMVFNSGRRLFPLLAYKVSGLDPHKLYCAGVHMIPDSAYKQEYDHDLQQWVNCLNQKKTIFKPTSEILGRIENGFKLMSLGIDMSDVKIFNIAIRKKTPLQIEKSRKPNLDKTIEVLIQYKYLPVIKIYELSNSGMEKKEIAQATFPETSFVTVSIYRNQKIKEMKTLGNKYCRTDRKQIVMEQRGELEQ | not soluble |
| MLWMVIGMWDTSKDYRLMVAVKAVDLFRRTLESGGFRGQWKKKPALQAAGEIERILQGLTYCYMEPEDLASSPEVMEIKGKVEEIVEALGGEDWSRRFLEEAPREEREKVEENIARVRFFLNTLGNLDRRLMLGKISDPVIGVDIITGEVMSVGNHPVADKLHVCNVNAGGRSIKVVTNDLDVRENDHVAVALLPPQNFMGVTSEGMFLGVEGVLRDVDGEPGEMPRGIPLEALNETRNLVEEFLKS | soluble |
| MSQIKNYMEEVVFSLMKDVLSDINVCSCEKCRMDIAAIALNNLPPKYIVTDKGELYSKVDSLKQQFEVDVISALAKAAVIVKRNPRHE | not soluble |
| MGSDKIHHHHHHMSQDTILLIWDRIGDYHLSRVKACEKLLGAPVFTADLAGTDNLYKWDSIAKTTHTVLSSKPAEQSDIWNRFRTFRRIIKTHSIAVVAMPYGRTEYHIFLLYARLKGIRTIIFSESWYSRGKLKDFLKSLLLKSLGNYFFVSGKRAFDHFTKNYKINPEKIETGYSVVDNNHFQRRLFTEKKYVLTIARYSEEKNLSFLIDSYAKSVISNTYNLMLIGEGPLRPALQSQIDILGLSDRVQLAGWVPYAALPKAYAEAVVFVLPSSFEPWGLVVNEAMSAGLPILVSDACGCMPELVAEGVNGWSFNSNTQQELIERLNAFAALSEKGIEITGKNSMQLIRNYTPDTWAGSIARLAQAGR | not soluble |
| MGSDKIHHHHHHMTDTAPAANIATLSELLKLSGSQYRLYDIGRLVSELPKEQFEKVELNQLPYPTPTQGCACIAIAFWQKQSSQPYLWLLKLPLDERGLLNQGARNHFIAIIVEALGADLTQETSKKQEELLSSNPYLFTPAQYKLASLNSKIKVDLKQQPSAYFSPFREYLSHGSDWGNWQGVGVQGITDFIARIKHDNHSELLLNALPHLPDEVLSPVCSALENEQYPVVLIDALVSALENALIIPDNSVKTMQLLRSLAANSDHTHVRKVVGQLLSNQEVSSELLITLSGRCWQALADEKMLMCYFEHLLSNNNLPLFSSIFKDLVTIPLIRPVAFQCIRSEDRSPALAQAIGQLLSQT | not soluble |
| MSVSNMPPIDRAEQSTAHEIQQAKVIDLNDRVLNLDNPDDKMISAFANYAVQTENWQQNALQALTSDKKGLTPEKLLVLQDHVLNYNVEVSLVGTLARKIVAAVETLTRS | soluble |
| MNVIALMAGDSNDFKEKGYTYPKYFLELDNKPLVQNIVESLKKIDCKITFIIRKEDNDQFFLGSSLKILAPFADVVCISGSTKGAVCTTLFAIDSINNEDEVLLINGDQLVKYDINDIIADFRERNLDGGIVTFESVHPRWSYVCLDEQGLVVQTSEKRPISNVATAGIYYYKRGLDLVESCFSVLKKDVQLNGSYYISSTFNELILRQKKVGVYKIDKKEYISFATTQMYENYINKKLEHHHHHH | soluble |
| SGWVWNQFFVLEEYTGTDPLYVGKLHSDMDRGDGSIKYILSGEGAGIVFTIDDTTGDIHAIQRLDREERSQYTLRAQALDRRTGRPMEPESEFIIKIQD | soluble |
| YTIKEAERGVVTRFGKFSHLVEPGLNWKPTFIDEVKPVNVEAVRELAASGVMLTSDENVVRVEMNVQYRVTNPEKYLYSVTSPDDSLRQATDSALRGVIGKYTMDRILTEGRTVIRSDTQRELEETIRPYDMGITLLDVNFQAARPPEEVKAAFDDAIAARENEQQYIREAEAYSNEVQPRANGQAQRILEEARAYKAQTILEAQGEVARFAKLLPEYKAAPEITRERLYIETMEKVLGNTRKVLVNDKGGNLMVLPLDQMLKGGNAPAAKSDNGASNLLRLPPASSSTTSGASNTSSTSQGDIMDQRRANAQRNDYQRQGE | not soluble |
| MASRAPKEVPLCPLMTDGETRNVTDLPGPTNWPLLGSLLEIFWKGGLKKQHDTLAEYHKKYGQIFRMKLGSFDSVHLGSPSLLEALYRTESAHPQRLEIKPWKAYRDHRNEAYGLMILEGQEWQRVRSAFQKKLMKPVEIMKLDKKINEVLADFLERMDELCDERGRIPDLYSELNKWSFESICLVLYEKRFGLLQKETEEEALTFITAIKTMMSTFGKMMVTPVELHKRLNTKVWQAHTLAWDTIFKSVKPCIDNRLQRYSQQPGADFLCDIYQQDHLSKKELYAAVTELQLAAVETTANSLMWILYNLSRNPQAQRRLLQEVQSVLPDNQTPRAEDLRNMPYLKACLKESMRLTPSVPFTTRTLDKPTVLGEYALPKGTVLTLNTQVLGSSEDNFEDSHKFRPERWLQKEKKINPFAHLPFGIGKRMCIGRRLAELQLHLALCWIIQKYDIVATDNEPVEMLHLGILVPSRELPIAFRPR | soluble |
| MSLITLTTDFGLKGPYVGEMKVAMLRINPNAKIVDVTHSVTRHSILEGSFVMEQVVKYSPKGTVHVGVIDPGVGTERRAIVIEGDQYLVVPDNGLATLPLKHIKVKSVYEIIPDKIRKFTGWEISSTFHGRDIFGPAGALIEKGIHPEEFGREIPVDSIVKLNVEPRKEGDVWILKVIYIDDFGNVILNLENYEKPRTVELLDFNLRLPYLETYGLVEKGEMLALPGSHDYLEIAVNMGSAAERLNVKVGDELRVRLLEGGSHHHHHH | soluble |
| MAHHHHHHMHVQARYQRITEAYAVLSDPEKRRAYDAKHGVNFQSRLARLQTVIGHHNTMATQRSTTSCKTACLASTSSPTTDEHDAQHLHAASHKDSAERTVGDDDDEDYDPNDVLAPPRGAPHQGRSSDFYSDDSRDAHGEGDYIARLFSLHLRVGAEAAPKTRNGVPVVQYQAITLTRAYSPPESPYARTWGLVFKKNELVDLDGENLEELARITGLAAVPFPSVVQQINYTMAGTDDRLAAPAISALRIRVHTGLSGEPCHGPNGVDQY | not soluble |
| MSSNDVLAQIAGLAKAAAELENDFSTDSEMQQDSEICDEVDAELFDDFETKPSSRKESSGTSRRTRMAHRELQGLQFANPGDEMSRFLPDSVDIISTNRSKRVAAEKQADLRDEPLHHDKTGKLSVTAKGQTLFFDLCDCLVVECDGCHWPCKQCKSRKCLIGCRQNRKEMVIRVEEMYTVTEAPGPVVNINPYFPGQIKD | not soluble |
| MSLNKKVVIDDVAKLAGVSKATISRYLNGKFEYMSEKTKDRIKESIEELNYRPNNIARSLKSNKSKLIGVVIADLTNPFSSIIIKGIGDECKARGYNMVIANSDNDVKQEEEYIKSLLDQRVEGIIVNSTGYNEEFLLSIKERGIPVSMVDRTFCEDKVDSVKSNNYDITVETINYLIDAGFNSLCFFTERLDNIKPRIERERAFIDVCSKRLKKENYNISVVDYSKAGNLEVNIYKFLNNYSGKKAIFAVNGVVLLHTLSAINKLNINVPKDLGICGYDNWGWAALIPPGITTISQPSYEMGSEAAKLVLDRIEGKASLGAVCKTLSAKLEIRGSTIPLNEGHHHHHH | not soluble |
| MKKTLLAIVAVSALSACRQAEEGPPPLPRQISDRSVGHYCSMNLTEHNGPKAQIFLNGKPDQPVWFSTIKQMFGYTKLPEEPKGIRVIYVTDMGNVTDWTNPNADTEWMDAKKAFYVIDSGFIGGMGAEDALPFGNKEQAEKFAKDKGGKVVGFDDMPDTYIFK | not soluble |
| REVYVLVIGETARACNFGLYGYERNTTPLLDKMEGVVTFTDVLTQSNTTHKSVPMLLSAASAEDYDCLYRQKGIITAFKEAGFHTAFFSNQLPNHSFIDFLGMEADDWKFIKKDAPKGANISDDELLFLVEKELKAGHQKLFIVLHAYGSHFNYKERYPESMSVFKPDNLTDAKYENKEYLMNAYDNTIRYTDGFLASLITLLQKTNSFSAMLYTSDHGEDIFDDNRKLFLHASPVPSYYQLHVPFLIWLSKTYREKNVEVHEAILQNREKPVAGNASVFHTMLNLAGVQTPYRADSLSVAN | not soluble |
| ATRVQAAQKEPASDVSDKLEQIREEIAKDPQSVFKYITISPVKKDDAIIGYRVSPGRDAALFNDVGLEPGDIAVQLNGIDLSDPSSSVQLMQVMSDPQELNLTVERDGQQYDIYIQL | not soluble |
